According to IntAct's records for PubMed 16996049:

Biological target: par6_caeel par-6 (UniProt Q9NAN2)
Sequence (Q9NAN2 whole entry): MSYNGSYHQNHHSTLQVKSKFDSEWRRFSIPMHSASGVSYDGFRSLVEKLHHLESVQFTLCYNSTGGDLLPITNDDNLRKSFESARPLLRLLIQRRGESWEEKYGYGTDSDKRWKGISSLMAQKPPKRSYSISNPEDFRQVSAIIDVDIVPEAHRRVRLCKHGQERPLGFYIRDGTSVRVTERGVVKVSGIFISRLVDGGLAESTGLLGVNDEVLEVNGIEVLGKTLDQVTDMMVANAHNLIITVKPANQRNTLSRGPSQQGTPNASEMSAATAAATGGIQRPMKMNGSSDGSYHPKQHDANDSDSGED

Sequence of Cell division control protein 42 homolog (Caenorhabditis elegans), Q05062 T17N (Q05062 whole entry T17N): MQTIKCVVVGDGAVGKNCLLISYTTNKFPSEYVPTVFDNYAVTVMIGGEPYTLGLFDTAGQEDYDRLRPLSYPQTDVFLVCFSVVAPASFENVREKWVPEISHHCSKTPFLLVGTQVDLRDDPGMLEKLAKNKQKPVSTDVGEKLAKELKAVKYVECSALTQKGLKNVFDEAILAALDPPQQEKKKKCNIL

effect of a mutation on the interaction: disrupting interaction
Substance: Cell division control protein 42 homolog (Caenorhabditis elegans), Q05062 T17N
